Several values for one entry are separate records, joined by “and”; a condition that tells them apart may be missing. Identical values can stand only once.

B2: purified NPTX1-flag (pEB Multi Neo Nptx1-flag-IRES-GFP, plasmid #3) (natural protein, mouse, UniProt Q62443 23-432, looked up)
chain: QDFGPTRFICTSVPVDADMCAASVAAGGAEELRSNVLQLRETVLQQKETILSQKETIRELTTKLGRCESQSTLDSGPGEARSGGGRKQPGSGKNTMGDLSRTPAAETLSQLGQTLQSLKTRLENLEQYSRLNSSSQTNSLKDLLQSKIDDLERQVLSRVNTLEEGKGGPKNDTEERAKIESALTSLHQRISELEKGQKDNRPGDKFQLTFPLRTNYMYAKVKKSLPEMYAFTVCMWLKSSAAPGVGTPFSYAVPGQANELVLIEWGNNPMEILINDKVAKLPFVINDGKWHHICVTWTTRDGVWEAYQDGTQGGNGENLAPYHPIKPQGVLVLGQEQDTLGGGFDATQAFVGELAHFNIWDRKLTPGEVYNLATCSSKALSGNVIAWAESQIEIFGGATKWTFEACRQIN

The series “SEC” deals with the molecule itself. Kind of series: SEC.
The series “native gel or EMSA” deals with the molecule itself. Description: native gel or EMSA. (A gel shift assay detects complexes by their altered migration in electrophoresis.)
The target of series [1] is B2. Description: immunostaining of cells or tissue.

B1: purified NPTX1-flag-strep (pEB Multi Neo Nptx1-flag-TEV-strep-IRES-GFP, plasmid #4) (natural protein, mouse, UniProt Q62443 23-432, looked up)
chain: QDFGPTRFICTSVPVDADMCAASVAAGGAEELRSNVLQLRETVLQQKETILSQKETIRELTTKLGRCESQSTLDSGPGEARSGGGRKQPGSGKNTMGDLSRTPAAETLSQLGQTLQSLKTRLENLEQYSRLNSSSQTNSLKDLLQSKIDDLERQVLSRVNTLEEGKGGPKNDTEERAKIESALTSLHQRISELEKGQKDNRPGDKFQLTFPLRTNYMYAKVKKSLPEMYAFTVCMWLKSSAAPGVGTPFSYAVPGQANELVLIEWGNNPMEILINDKVAKLPFVINDGKWHHICVTWTTRDGVWEAYQDGTQGGNGENLAPYHPIKPQGVLVLGQEQDTLGGGFDATQAFVGELAHFNIWDRKLTPGEVYNLATCSSKALSGNVIAWAESQIEIFGGATKWTFEACRQIN
In the case of B1, the “stoichiometry N” value in the series “SEC” is ~15.

Turning to B2, the “stoichiometry N” value in “native gel or EMSA” is 15.

B3: purified HA-C1QL3 (pEB Multi Neo HA-C1ql3-IRES-GFP) (natural protein, mouse, UniProt Q9ESN4 21-255, looked up)
chain: HYEMLGTCRMVCDPYGGTKAPSTAATPDRGLMQSLPTFIQGPKGEAGRPGKAGPRGPPGEPGPPGPVGPPGEKGEPGRQGLPGPPGAPGLNAAGAISAATYSTVPKIAFYAGLKRQHEGYEVLKFDDVVTNLGNHYDPTTGKFTCSIPGIYFFTYHVLMRGGDGTSMWADLCKNNQVRASAIAQDADQNYDYASNSVVLHLEPGDEVYIKLDGGKAHGGNNNKYSTFSGFIIYAD
On to B3, for which the “stoichiometry N” value in the series “native gel or EMSA” is 6 and 18. Also, in series [1], the binding result was “binds”.

A word on the stoichiometry N: it is the number of molecules, sites or subunits per partner or assembly.

For the origin of these results see publication PMC11565477 (FASEB journal : official publication of the Federation of …, 2021).
